Data: US20030148958A1 (PROCTER AND GAMBLE, published 2003)
Positions count from the first letter of the chain named. Ends that are not written are not given here.

T1: CRF2R
T1 sequence (Q13324 whole entry, species assumed, looked up): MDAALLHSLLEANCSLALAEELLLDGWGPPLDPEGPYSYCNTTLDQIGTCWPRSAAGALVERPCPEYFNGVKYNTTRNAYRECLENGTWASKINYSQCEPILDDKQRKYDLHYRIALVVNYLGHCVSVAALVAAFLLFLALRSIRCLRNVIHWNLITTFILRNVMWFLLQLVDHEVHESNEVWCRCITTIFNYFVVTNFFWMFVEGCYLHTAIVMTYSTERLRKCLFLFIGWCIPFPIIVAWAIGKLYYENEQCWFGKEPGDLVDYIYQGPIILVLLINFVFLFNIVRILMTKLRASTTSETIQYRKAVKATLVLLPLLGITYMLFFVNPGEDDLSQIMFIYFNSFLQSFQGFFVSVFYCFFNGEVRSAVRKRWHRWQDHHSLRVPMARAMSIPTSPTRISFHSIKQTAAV

T2: corticotropin releasing factor 2 receptor
T2 sequence (Q13324 whole entry, species assumed, looked up): T1 sequence (Q13324 whole entry, species assumed, looked up)

B1: SEQ ID NO 258 (peptide)
peptide: NDDPPISIDLPFQLLRNMIEMARIENEREQAGLNAKYLAEV-NH2
B2: SEQ ID NO 262 (peptide)
peptide: NDDPPISIDLPFHLLRNMIEMARIENEREQAGLNAKYLAEV-NH2
B3: SEQ ID NO 260 (peptide)
peptide: NDDPPISIDLPFLLLRNMIEMARIENEREQAGLNAKYLAEV-NH2
B4: SEQ ID NO 257 (peptide)
peptide: NDDPPISIDLPLFLLRNMIEMARIENEREQAGLNAKYLAEV-NH2
B5: SEQ ID NO 20 (peptide)
peptide: ZGPPISIDLPFQLLRKMIEIEKQEKEKQQATTNARLLDTV
modifications: C-terminal amide
B6: SEQ ID NO 23 (peptide)
peptide: B5 peptide with D38A, T39R
modifications: C-terminal amide
B7: SEQ ID NO 21 (peptide)
peptide: B5 peptide with D38A
modifications: C-terminal amide
B8: SEQ ID NO 22 (peptide)
peptide: B5 peptide with T39R
modifications: C-terminal amide
B9: SEQ ID NO 259 (peptide)
peptide: NDDPPISIDLPLHLLRNMIEMARIENEREQAGLNAKYLAEV-NH2
B10: SEQ ID NO 261 (peptide)
peptide: NDDPPISIDLPFYLLRNMIEMARIENEREQAGLNAKYLAEV-NH2
B11: SEQ ID NO 256 (peptide)
peptide: ZGPPISIDVPFQLLRKMIEIEKQEKEKQQAANNRLLLDTI
modifications: C-terminal amide
B12: SEQ ID NO 203 (peptide)
peptide: B11 peptide with V9L, F11Y, Q12L
modifications: C-terminal amide
B13: SEQ ID NO 207 (peptide)
peptide: B11 peptide with V9L, F11Q, Q12H
modifications: C-terminal amide
B14: SEQ ID NO 206 (peptide)
peptide: B11 peptide with V9L, F11A, Q12H
modifications: C-terminal amide
B15: SEQ ID NO 196 (peptide)
peptide: B11 peptide with V9L, F11Q, Q12L
modifications: C-terminal amide
B16: SEQ ID NO 201 (peptide)
peptide: B11 peptide with V9L, F11Y, Q12V
modifications: C-terminal amide
B17: SEQ ID NO 205 (peptide)
peptide: B11 peptide with V9L, F11H, Q12H
modifications: C-terminal amide
B18: SEQ ID NO 194 (peptide)
peptide: B11 peptide with V9L, F11L, Q12I
modifications: C-terminal amide
B19: SEQ ID NO 208 (peptide)
peptide: B11 peptide with V9L, F11Y, Q12H
modifications: C-terminal amide
B20: SEQ ID NO 210 (peptide)
peptide: B11 peptide with V9L, F11W
modifications: C-terminal amide
B21: SEQ ID NO 209 (peptide)
peptide: B11 peptide with V9L, F11W, Q12H
modifications: C-terminal amide
B22: SEQ ID NO 200 (peptide)
peptide: B11 peptide with V9L, F11Y, Q12T
modifications: C-terminal amide
B23: SEQ ID NO 204 (peptide)
peptide: B11 peptide with V9L, F11Y, Q12I
modifications: C-terminal amide
B24: SEQ ID NO 211 (peptide)
peptide: B11 peptide with V9L, F11A
modifications: C-terminal amide
B25: SEQ ID NO 199 (peptide)
peptide: B11 peptide with V9L, F11Q, Q12I
modifications: C-terminal amide
B26: SEQ ID NO 193 (peptide)
peptide: B11 peptide with V9L, F11L, Q12V
modifications: C-terminal amide
B27: SEQ ID NO 195 (peptide)
peptide: B11 peptide with V9L, F11L, Q12F
modifications: C-terminal amide
B28: SEQ ID NO 202 (peptide)
peptide: B11 peptide with V9L, F11Y
modifications: C-terminal amide
B29: SEQ ID NO 24 (peptide)
peptide: B11 peptide with V9L, F11I, Q12T
modifications: C-terminal amide
B30: SEQ ID NO 263 (peptide)
peptide: DNPSLSIDLPYYLLRTLLELARTQSQRERAEQNAIIFASV-NH2
B31: SEQ ID NO 264 (peptide)
peptide: NDDPPISIDLPFFLLRNMIEMARIENEREQAGLNAKYLAEV-NH2

Key:
Test in all cases: cell-based or functional assay
[1] = target: T1, CRF2R
[2] = target: CRF1R
[3] = target: T2, corticotropin releasing factor 2 …
[4] = target: corticotropin releasing factor 1 receptor
Wherever CRF1R Emax % is given: reference of the scale not given here.
Wherever CRF1R Emax is given: reference of the scale not given here.
Wherever CRF2R Emax % is given: reference of the scale not given here.
Wherever CRF2R Emax is given: reference of the scale not given here.

Binder | CRF2R EC50 [1] | CRF2R Emax % [1] | CRF1R EC50 [2] | CRF1R Emax % [2] | CRF2R EC50 [3] | CRF2R Emax [3] | CRF1R EC50 [4] | CRF1R Emax [4]
B1 | 0.1 µM | 49.3% | 1 µM | 23.6% |  |  |  | 
B2 | 0.1 µM | 92.2% | 0.408 µM | 100% |  |  |  | 
B3 | 0.1 µM | 89.3% | 0.834 µM | 89.7% |  |  |  | 
B4 | 0.1 µM | 72.6% | 0.745 µM | 83.5% |  |  |  | 
B5 |  |  |  |  | 0.00781 µM | 99% | 0.906 µM | 60%
B6 |  |  |  |  | 0.0102 µM | 100% | 1 µM | 82%
B7 |  |  |  |  | 0.00846 µM | 96% | 0.908 µM | 88%
B8 |  |  |  |  | 0.00833 µM | 100% | 1 µM | 64%
B9 | 0.1 µM | 65% | 0.82 µM | 83.6% |  |  |  | 
B10 | 0.1 µM | 95.3% | 0.274 µM | 100% |  |  |  | 
B11 | 0.0126 µM | 100% | 0.254 µM | 100% |  |  |  | 
B12 |  |  |  |  | 0.0052 µM | 94% | 0.0762 µM | 86%
B13 |  |  |  |  | 0.0614 µM | 96% | 0.466 µM | 88%
B14 |  |  |  |  | 0.0305 µM | 97% | 0.697 µM | 97%
B15 |  |  |  |  | 0.0277 µM | 97% | 0.447 µM | 96%
B16 |  |  |  |  | 0.005 µM | 100% | 0.0996 µM | 80%

Binder | CRF2R EC50 [1] | CRF2R Emax % [1] | CRF1R EC50 [2] | CRF1R Emax % [2] | CRF2R EC50 [3] | CRF2R Emax [3] | CRF1R EC50 [4] | CRF1R Emax [4]
B17 |  |  |  |  | 0.025 µM | 93% | 0.127 µM | 88%
B18 |  |  |  |  | 0.005 µM | 96% | 0.106 µM | 94%
B19 |  |  |  |  | 0.0056 µM | 88% | 0.0649 µM | 81%
B20 |  |  |  |  | 0.0102 µM | 97% | 0.0435 µM | 90%
B21 |  |  |  |  | 0.0074 µM | 93% | 0.0264 µM | 80%
B22 |  |  |  |  | 0.0088 µM | 100% | 0.189 µM | 99%
B23 |  |  |  |  | 0.0036 µM | 93% | 0.0321 µM | 74%
B24 |  |  |  |  | 0.0595 µM | 100% | 0.826 µM | 37%
B25 |  |  |  |  | 0.0085 µM | 92% | 0.707 µM | 93%
B26 |  |  |  |  | 0.0101 µM | 97% | 0.266 µM | 95%
B27 |  |  |  |  | 0.0188 µM |  | 0.103 µM | 93%
B28 |  |  |  |  | 0.0087 µM | 99% | 0.404 µM | 100%
B29 |  |  |  |  | 0.0432 µM | 100% | > 1 µM | 18%
B30 | 0.0362 µM | 93% | 0.802 µM | 72% |  |  |  | 
B31 | 0.1 µM | 66.3% | 0.705 µM | 100% |  |  |  | 
